Assay [1] deals with T1, recombinant purified cyno IL-12 p70 (cynomolgus monkey).
T1 chain 1: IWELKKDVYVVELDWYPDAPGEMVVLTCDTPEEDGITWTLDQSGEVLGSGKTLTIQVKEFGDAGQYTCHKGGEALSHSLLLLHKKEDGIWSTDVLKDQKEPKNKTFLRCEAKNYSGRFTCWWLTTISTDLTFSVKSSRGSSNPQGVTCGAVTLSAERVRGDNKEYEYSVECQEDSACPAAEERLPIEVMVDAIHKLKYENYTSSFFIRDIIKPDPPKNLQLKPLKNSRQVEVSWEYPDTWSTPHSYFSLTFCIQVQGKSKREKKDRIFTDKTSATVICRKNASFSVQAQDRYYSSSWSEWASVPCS
T1 chain 2: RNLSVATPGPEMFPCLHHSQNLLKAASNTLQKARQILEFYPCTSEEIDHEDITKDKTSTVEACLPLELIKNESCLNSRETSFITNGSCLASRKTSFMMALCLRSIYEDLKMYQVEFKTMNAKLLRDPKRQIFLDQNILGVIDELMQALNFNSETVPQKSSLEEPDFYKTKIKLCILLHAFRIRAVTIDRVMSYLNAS
The assay can be described thus: cell-based or functional assay.

Assay [2] addresses T2, recombinant purified human IL-12 p70 (human, UniProt P29459 23-219).
T2 sequence 1: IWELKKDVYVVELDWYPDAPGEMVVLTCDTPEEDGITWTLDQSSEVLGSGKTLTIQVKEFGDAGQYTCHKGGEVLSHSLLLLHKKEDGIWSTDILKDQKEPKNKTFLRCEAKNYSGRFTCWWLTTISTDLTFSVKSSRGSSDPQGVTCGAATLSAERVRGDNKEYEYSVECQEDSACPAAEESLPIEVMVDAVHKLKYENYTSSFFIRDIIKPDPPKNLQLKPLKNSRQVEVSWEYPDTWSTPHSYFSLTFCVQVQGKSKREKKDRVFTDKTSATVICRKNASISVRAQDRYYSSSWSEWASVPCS
T2 sequence 2: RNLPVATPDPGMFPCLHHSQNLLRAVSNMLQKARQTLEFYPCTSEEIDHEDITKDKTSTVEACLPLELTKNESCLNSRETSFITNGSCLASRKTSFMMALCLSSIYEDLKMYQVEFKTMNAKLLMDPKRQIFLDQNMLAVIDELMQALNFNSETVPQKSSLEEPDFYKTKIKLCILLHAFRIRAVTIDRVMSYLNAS
Nature of the assay: cell-based or functional assay.

Assay [3] has as its target T3, recombinant purified mouse IL-12 (Peprotech) (mouse, UniProt P43432 23-335; P43431 23-215).
T3 construct: Bought reagent; also called mu IL-12; murine IL-12
T3 sequence (looked up) 1: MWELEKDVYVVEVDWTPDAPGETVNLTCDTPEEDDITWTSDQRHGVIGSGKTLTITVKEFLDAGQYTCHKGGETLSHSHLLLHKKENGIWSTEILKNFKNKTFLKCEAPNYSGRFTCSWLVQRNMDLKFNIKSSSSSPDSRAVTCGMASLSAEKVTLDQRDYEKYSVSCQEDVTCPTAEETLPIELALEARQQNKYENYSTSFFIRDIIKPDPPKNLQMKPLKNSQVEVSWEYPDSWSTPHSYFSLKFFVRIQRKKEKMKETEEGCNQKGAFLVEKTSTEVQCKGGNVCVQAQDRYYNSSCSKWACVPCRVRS
T3 sequence (looked up) 2: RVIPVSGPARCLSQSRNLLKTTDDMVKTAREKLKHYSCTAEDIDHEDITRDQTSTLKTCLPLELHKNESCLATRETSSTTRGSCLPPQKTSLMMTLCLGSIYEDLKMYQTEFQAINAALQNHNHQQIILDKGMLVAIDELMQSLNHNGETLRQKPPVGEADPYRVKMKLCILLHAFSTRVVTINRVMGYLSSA
Nature of the assay: direct ELISA, plate coated with 5 ug/ml recombinant mouse IL-12. As to the method:
To determine whether the ten monoclonal antibodies described above recognize murine IL-12, two ELISAs were set up. First, a direct ELISA was set up by directly coating ELISA plates with 5 ug/ml of recombinant purified mouse IL-12 (Peprotech). Murine-anti-human IL-12 p40 mAbs were prepared at various concentrations ranging from 3 to 200 ng/ml in PBS containing 0.1% BSA (Sigma, St. Louis, Mo.). 50 μl of each antibody dilution was added to the coated ELISA plate and incubated for 1 hour at room temperature. Wells were washed 3 times with PBS containing 0.05% Tween-20. Anti-mouse IgG-HRP antibody (R&D #HAF007, Minneapolis, Minn.) was diluted 1:2000 in PBS containing 0.1% BSA; 50 ul/well was added and the plates incubated for 1 hour at room temperature. Fifty microliters of TMB solution (Sigma # T0440, St. Louis, Mo.) was added to each well and incubated for 10 minutes at room temperature. The reaction was stopped by addition of 2N sulphuric acid. Plates were read spectrophotmetrically at a wavelength of 450 nm.
(In an ELISA, binding on a coated surface is turned into a signal by an enzyme label.)

For assay [4], the target named is T2, recombinant purified human IL-12 p70. Nature of the assay: SPR (Biacore), mAb captured on anti-mouse IgG Fc, IL-12 p70 as analyte. As to the method:
The BIACORE assay (Biacore, Inc, Piscataway, N.J.) determines the affinity of antibodies with kinetic measurements of on-, off-rate constants. Binding of antibodies to recombinant purified human IL-12 p70 or recombinant purified human IL-12 p40 were determined by surface plasmon resonance-based measurements with a Biacore® 3000 instrument (Biacore® AB, Uppsala, Sweden) using running HBS-EP (10 mM HEPES [pH 7.4], 150 mM NaCl, 3 mM EDTA, and 0.005% surfactant P20) at 25° C. All chemicals were obtained from Biacore® AB (Uppsala, Sweden) or otherwise from a different source as described in the text. Approximately 5000 RU of goat anti-mouse IgG, (Fcγ), fragment specific polyclonal antibody (Pierce Biotechnology Inc, Rockford, Ill.) diluted in 10 mM sodium acetate (pH 4.5) was directly immobilized across a CM5 research grade biosensor chip using a standard amine coupling kit according to manufacturer's instructions and procedures at 25 μg/ml. Unreacted moieties on the biosensor surface were blocked with ethanolamine. Modified carboxymethyl dextran surface in flowcell 2 and 4 was used as a reaction surface. Unmodified carboxymethyl dextran without goat anti-mouse IgG in flow cell 1 and 3 was used as the reference surface. For kinetic analysis, rate equations derived from the 1:1 Langmuir binding model were fitted simultaneously to association and dissociation phases of all eight injections (using global fit analysis) with the use of Biaevaluation 4.0.1 software. Purified antibodies were diluted in HEPES-buffered saline for capture across goat anti-mouse IgG specific reaction surfaces. Mouse antibodies to be captured as a ligand (25 μg/ml) were injected over reaction matrices at a flow rate of 5 μl/min. The association and dissociation rate constants, kₒₙ (unit M⁻¹ s⁻¹) and koff (unit s⁻¹) were determined under a continuous flow rate of 25 μl/min. Rate constants were derived by making kinetic binding measurements at ten different antigen concentrations ranging from 10-200 nM. The equilibrium dissociation constant (unit M) of the reaction between mouse antibodies and recombinant purified human IL-12 p70 or recombinant purified human IL-12 p40 was then calculated from the kinetic rate constants by the following formula: KD=koff/kₒₙ. Binding is recorded as a function of time and kinetic rate constants are calculated.

B1: murine anti-human IL-12p40 monoclonal antibody 7G3 (antibody, V domains shown)
VH: EVQLQQSGAEFVRSGASVKLSCTASGLNIKDYYIHWVKQRPEQVLDWIGWIDPENGYSEYAPRFQDKATMTADTSSNTAYLHLSSLTSEDTAVYYCNPGELARYFDYWGQGTTLTVSS
VL: DIVLSQSPATLSVTPGDSVSLSCRASQSISKNLHWYQQKSHESPRLLIKYTSQSISGIPSRFSGSGSGTDFTLSINSVETEDFGMYFCQQSISWPLTFGAGTKLELKR
notes: Murine mAb
Take B1: in assay [1], the “Average IC50 (nM) Cyno IL-12, PHA blast IFN-γ assay” value was greater than 20 nM. The “Average IC50 (nM) Human IL-12, PHA blast IFN-γ assay” value in assay [2] turned out to be 0.047 nM. For the same molecule, the binding result in assay [3] is “no binding (tested: 3 to 200 ng/ml mAb)”. Further, in assay [4], the Kd – broadly, the constant that tells how readily two partners part at equilibrium – came out at 270 pM; the koff – broadly, the first-order rate constant of dissociation – amounted to 0.00028 s⁻¹; the kon (commonly the rate constant with which the complex forms) was determined as 1.1e+06 M⁻¹ s⁻¹.

B2: murine anti-human IL-12p40 monoclonal antibody 1D4 (antibody, V domains shown)
VH: QVTLKESGPGILQPSQTLSLTCSFSGFSLRKSVMGVSWIRQPSGKGLEWLAHIYWDDDKYYNPSLKSRLTISKDPSRNQVFLKITSVDTADAATYYCTRRGIRSAMDYWGQGTSVTVSS
VL: SVVMTQTPKFLLVSAGDRVTITCKASQSVSNDVAWYQQKPGQSPKLLIYYASNRYTGVPDRFTGSGYGTDFTFIISTVRAEDLAVYFCQQDYNSPWTFGGGTKLEIKR
notes: Murine mAb purified from hybridoma supernatant
As for B2, the “Average IC50 (nM) Cyno IL-12, PHA blast IFN-γ assay” value in assay [1] was 0.078 nM. The “Average IC50 (nM) Human IL-12, PHA blast IFN-γ assay” value in assay [2] worked out at 0.031 nM. Moreover, the binding result in assay [3] was “no binding (tested: 3 to 200 ng/ml mAb)”. In assay [4], the Kd came out at 120 pM, the koff stood at 2.9e-05 s⁻¹ and the kon stood at 250000 M⁻¹ s⁻¹.

B3: murine anti-human IL-12p40 monoclonal antibody 5E8 (antibody, V domains shown)
VH: QIQLVQSGPELKKPGETVKISCKASGYSFTDYSMHWVKQAPGKGLKWMDWINTETGEPTYADDFKGRFAFSLETSASTAYLQINNLKNEDTATYFCSRRRYRAFDYWGQGTTLTVSS
VL: SIVMTQSPKFLLVSAGDRVTITCKASQSVSNDVAWYQQKLGQSPKLLIYYASNRYTGVPDRFTGSGYGTDFTFTINTVQAEDLAVYFCQQDYTSPYTFGGGTKLEIQR
notes: Murine mAb
B3: the “Average IC50 (nM) Human IL-12, PHA blast IFN-γ assay” value in assay [2] was 12 nM. For the same molecule, in assay [3], the binding result is on record as “no binding (tested: 3 to 200 ng/ml mAb)”. For the same molecule, in assay [4], the Kd was 4000 pM, the koff worked out at 0.0023 s⁻¹ and the kon came out at 570000 M⁻¹ s⁻¹.

B4: murine anti-human IL-12p40 monoclonal antibody 1H6 (antibody, V domains shown)
VH: EVKLVESGGGLVQPGGSRKLSCAASGFTFSDYGMVWVRQAPGKGLEWVAYISSGSSTIHYADTMKGRFTISRDNPKNTLFLQMSSLRSEDTAMYYCARRHYYAMDYWGQGTSVTVSS
VL: SFVMTQTPKFLLVSAGDRVTITCKASQSVSNDVAWYQQKPGQSPKLLIYYASNRYTGVPDRFTGTGYGTDFTFTISTVQAEDLAVYFCQQDYTSPFTFGSGTKLEIKR
notes: Murine mAb
Consider B4, for which the “Average IC50 (nM) Cyno IL-12, PHA blast IFN-γ assay” value in assay [1] worked out at 1.6 nM. For the same molecule, in assay [2], the “Average IC50 (nM) Human IL-12, PHA blast IFN-γ assay” value came out at 0.69 nM. In assay [3], the binding result is reported as “no binding (tested: 3 to 200 ng/ml mAb)”. Further, in assay [4], the Kd turned out to be 250 pM, the dissociation rate constant (koff) was found to be 9.9e-05 s⁻¹ and the on-rate (kon) came out at 430000 M⁻¹ s⁻¹.

B5: murine anti-human IL-12p40 monoclonal antibody 1A6 (antibody, V domains shown)
VH: QVTLKESGPGILKPSQTLSLTCSFSGFSLSTSGMGVSWIRQPSGKGLEWLAHIWWDGDNYYNPSLKSQLTISKDTSRNQVFLRIATVDTADTATYYCARRTRVNYAMDYWGQGTSVTVSS
VL: SVVMTQTPKFLLVSAGDRVTITCKASQSVSNDVAWFQQKPGQSPKLLIYYASNRYTGVPDRFTGSGYGTDFTFTISTVQAEDLAVYFCQQDYNSPWTFGGGTKLEIKR
notes: Murine mAb
In the case of B5, the “Average IC50 (nM) Cyno IL-12, PHA blast IFN-γ assay” value in assay [1] amounted to 0.044 nM. Moreover, the “Average IC50 (nM) Human IL-12, PHA blast IFN-γ assay” value in assay [2] was 0.052 nM. Further, the binding result in assay [3] was “no binding (tested: 3 to 200 ng/ml mAb)”. For the same molecule, in assay [4], the Kd was determined as 230 pM, the dissociation rate constant (koff) turned out to be 3.5e-05 s⁻¹ and the kon is 150000 M⁻¹ s⁻¹.

B6: murine anti-human IL-12p40 monoclonal antibody 4B4 (antibody, V domains shown)
VH: QVTLKESGPGILKPSQTLSLTCSLSGFSLSTSGMGVSWIRQPSGKGLEWLAHIWWDGDSYSNPSLRSRLTISRDTSRNQVFLRIATVDTADTATYYCARRTRVNYAMDYWGQGTSVTVSS
VL: SVVMTQTPKFLLVSAGDRVTMTCKASQSVSNDVAWFQQKPGQSPKLLIYYASNRYTGVPDRFTGSGYGTDFTFTISTVQAEDLAVYFCQQDYNSPWTFGGGTKLEIKR
notes: Murine mAb
On to B6, for which the “Average IC50 (nM) Cyno IL-12, PHA blast IFN-γ assay” value in assay [1] was 0.028 nM. Further, the “Average IC50 (nM) Human IL-12, PHA blast IFN-γ assay” value in assay [2] was determined as 0.039 nM. The binding result in assay [3] is given as “no binding (tested: 3 to 200 ng/ml mAb)”. For the same molecule, in assay [4], the equilibrium dissociation constant (Kd) turned out to be 100 pM, the koff was 1.4e-05 s⁻¹ and the on-rate (kon) worked out at 130000 M⁻¹ s⁻¹.

B7: murine anti-human IL-12p40 monoclonal antibody 3A11 (antibody, V domains shown)
VH: EVQLQQSGADLEKPGASVKLSCTASGFNIKDTFMHWVKQRPEQGLEWIGRIDPANGHTKYDPKFQGKATITADTSSNTAYLQLSSLTSEDTAVYYCARWGQFGLLWNAMDYWGQGTSVTVSS
VL: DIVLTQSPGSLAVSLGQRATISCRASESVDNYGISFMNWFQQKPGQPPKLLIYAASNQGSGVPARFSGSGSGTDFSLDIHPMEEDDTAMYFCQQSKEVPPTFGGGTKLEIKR
notes: Murine mAb
On to B7, for which the “Average IC50 (nM) Human IL-12, PHA blast IFN-γ assay” value in assay [2] was found to be 3.4 nM. In addition, the binding result in assay [3] is listed as “no binding (tested: 3 to 200 ng/ml mAb)”. Also, in assay [4], the Kd turned out to be 1200 pM, the koff was found to be 0.00019 s⁻¹ and the on-rate (kon) worked out at 150000 M⁻¹ s⁻¹.

These data come from patent US20140178332A1 (published 2014).
